B1: apo-RslA 1-108 (Zn2+ free, oxidized N-terminal domain of M. tuberculosis RslA), N-term His-tag (other)
chain: MTMPLRGLGPPDDTGVREVSTGDDHHYAMWDAAYVLGALSAADRREFEAHLAGCPECRGAVTELCGVPALLSQLDRDEVAAISESAPTVVASGLSPELLPSLLAAVHR
modifications: Zn2+ removed with H2O2 and TPEN; oxidized, one disulfide bond
notes: range 1-108; Same polypeptide as holo-RslA; for SPR made on the chip by passing 10 mM H2O2 and 2 mM TPEN over immobilized RslA; also called Zn^2+ free RslA; oxidized RslA; not shown: N-terminal His-tag from pET-Duet1 MCS1
B2: σ^L 1-177 (Mycobacterium tuberculosis sigma factor L, Rv0735), N-term His-tag (other)
chain: MARVSGAAAAEAALMRALYDEHAAVLWRYALRLTGDAAQAEDVVQETLLRAWQHPEVIGDTARPARAWLFTVARNMIIDERRSARFRNVVGSTDQSGTPEQSTPDEVNAALDRLLIADALAQLSAEHRAVIQRSYYRGWSTAQIATDLGIAEGTVKSRLHYAVRALRLTLQELGVTR
notes: range 1-177; also called SigL; Mtb σ^L; not shown: N-terminal His-tag from pET-Duet1 MCS1

Tests used:
[1] = target: the molecule itself; test: analytical gel filtration; dynamic light scattering
[2] = target: B2; test: SPR (BIACORE 2000), immobilized RslA freed of Zn2+ with H2O2/TPEN, σ^L as analyte
[3] = target: B1; test: as above

| Binder | binding result [1] | Kd [2] [nM] | fold reduction in affinity against Zn2+ bound RslA [3] [fold] |
| --- | --- | --- | --- |
| B1 | binds | ~150 | – |
| B2 | – | – | 7 |
